Source: US10000771B2, “Nuclear targeting sequences” (Yeda Research and Development Co. Ltd., priority 2007, dated 2018)

Tests used:
CHO cells = assay: Microscopy of SMAD3 and MH2 constructs (subcellular localization); type: cell-based; conditions: overexpressed in CHO cells, fluorescence microscopy
Text: FIGS. 11A-11D are photomicrographs illustrating that mutation of SPS prevents the nuclear translocation of full length SMAD3. CHO cells overexpressing either Flag-SMAD3 (SMAD3) or its AAA mutant (AAA-SMAD3) were fixed and stained both with anti Flag Ab and DAPI.
FIGS. 12A-12F are photomicrographs illustrating that mutants of the SPS domain modulate the subcellular translocation of the MH2 region of SMAD3. CHO cells overexpressing MH2 domain of SMAD3 (WT-MH2), or the AAA (AAA-MH2) and DPD mutant (MH2-DPD) were fixed and visualized under florescent microscope.
Immunofluorescence Microscopy. Cells were fixed (30 min in 3% paraformaldehyde in PBS or 10 min with ice-cold methanol), followed by 5-min permeabilization with 0.2% Triton X-100 in PBS (23° C.). The fixed cells were sequentially incubated with the appropriate Abs (45 min) followed by rhodamine-conjugated secondary Abs (45 min) and DAPI. Slides were visualized using a fluorescence microscope (Nikon, Japan) at 400× magnifications.
Therefore, it seems likely that the SPS of SMAD3 operated similarly to that of ERK2. To examine whether this SPS of SMAD3 is involved in nuclear translocation WT-Flag-SMAD3 and a Flag-SMAD3 in which the SPS domain was replaced with three Ala residues (AAA-SMAD3) were overexpressed in CHO cells and their localization examined.

SPS domain = assay: SPS phosphorylation detected by anti pSPS Ab Western blot; type: cell-based; conditions: COS7 cells, stimulated with VOOH, TPA, EGF or TGFβ, immunoprecipitation and Western blot
Experimental: FIGS. 4A-4I are autoradiographs characterizing SPS phosphorylation using an Ab to the phosphorylated SPS domain. FIG. 4A illustrates an elevation of pSPS detection upon stimulation. COS cells were transfected with WT-GFP-ERK2. Twenty-four hr after transfection, the cells were serum-starved for 16 hr and subsequently treated with the general stimulator VOOH (V, 100 μM Na3VO4 and 200 μM H2O2, 15 min), TPA (T, 250 nM, 15 min), EGF (E, 50 ng/ml for 15 min), or left untreated (NT). The GFP-ERK2 was immunoprecipitated with anti GFP Ab, extensively washed, and the IP was then subjected to Western blotting with anti phospho SPS-ERK (αphoSPS-ERK) and anti general ERK (αgen-ERK) Abs. FIG. 4B is a time course of SPS phosphorylation. COS7 cells overexpressing WT-GFP-ERK2 were serum starved followed by EGF stimulation for the indicated time points. The lysates were then subjected to Western blot analysis as in FIG. 4A. […] SPS phosphorylation was detected using the anti pSPS Abs, and this was compared to the amount of genral ERKs detected by αgERK. […] SPS-phosphorylation was detected using αpSPS and αgERK Abs. […] The phosphorylation (^32P-ERK2) of ERK and its mutants was detected by autoradiography. […]
FIG. 9B is an autoradiograph illustrating that stimulation elevates pSPS phosphorylation of 2GFP-SPS construct. […] The total amount of immunoprecipitated 2GFP-SPS was detected with αGFP Ab. […]

B1: WT-Flag-SMAD3: full length FLAG-SMAD3 (protein)
chain: MSSILPFTPPIVKRLLGWKKGEQNGQEEKWCEKAVKSLVKKLKKTGQLDELEKAITTQNVNTKCITIPRSLDGRLQVSHRKGLPHVIYCRLWRWPDLHSHHELRAMELCEFAFNMKKDEVCVNPYHYQRVETPVLPPVLVPRHTEIPAEFPPLDDYSHSIPENTNFPAGIEPQSNIPETPPPGYLSEDGETSDHQMNHSMDAGSPNLSPNPMSPAHNNLDLQPVTYCEPAFWCSISYYELNQRVGETFHASQPSMTVDGFTDPSNSERFCLGLLSNVNRNAAVELTRRHIGRGVRLYYIGGEVFAECLSDSAIFVQSPNCNQRYGWHPATVCKIPPGCNLKIFNNQEFAALLAQSVNQGFEAVYQLTRMCTIRMSFVKGWGAEYRRQTVTSTPCWIELHLNGPLQWLDKVLTQMGSPSIRCSSVS
modifications: left off: small tags and cut ends
CHO cells
  subcellular localization: nuclear localization
SPS domain
  SPS phosphorylation upon stimulation (anti pSPS Ab recognition): phosphorylated on its SPS domain
